The text below walks through data of article PMC7218409, “The protein architecture of the endocytic coat analyzed by FRET microscopy” (Molecular Systems Biology, 2020).

One assay concerns the target T1, Ede1-mCherry (S. cerevisiae, UniProt P34216 1-1381).
T1 construct: Ede1 (Eps15/R homolog), S. cerevisiae; gene tagged at its endogenous locus, no truncation told; Linker RTLQVD between protein and C-terminal tag; source: S. cerevisiae, expressed from its endogenous locus, in live cells; not shown: mCherry, C-terminal, kept
T1 sequence (looked up): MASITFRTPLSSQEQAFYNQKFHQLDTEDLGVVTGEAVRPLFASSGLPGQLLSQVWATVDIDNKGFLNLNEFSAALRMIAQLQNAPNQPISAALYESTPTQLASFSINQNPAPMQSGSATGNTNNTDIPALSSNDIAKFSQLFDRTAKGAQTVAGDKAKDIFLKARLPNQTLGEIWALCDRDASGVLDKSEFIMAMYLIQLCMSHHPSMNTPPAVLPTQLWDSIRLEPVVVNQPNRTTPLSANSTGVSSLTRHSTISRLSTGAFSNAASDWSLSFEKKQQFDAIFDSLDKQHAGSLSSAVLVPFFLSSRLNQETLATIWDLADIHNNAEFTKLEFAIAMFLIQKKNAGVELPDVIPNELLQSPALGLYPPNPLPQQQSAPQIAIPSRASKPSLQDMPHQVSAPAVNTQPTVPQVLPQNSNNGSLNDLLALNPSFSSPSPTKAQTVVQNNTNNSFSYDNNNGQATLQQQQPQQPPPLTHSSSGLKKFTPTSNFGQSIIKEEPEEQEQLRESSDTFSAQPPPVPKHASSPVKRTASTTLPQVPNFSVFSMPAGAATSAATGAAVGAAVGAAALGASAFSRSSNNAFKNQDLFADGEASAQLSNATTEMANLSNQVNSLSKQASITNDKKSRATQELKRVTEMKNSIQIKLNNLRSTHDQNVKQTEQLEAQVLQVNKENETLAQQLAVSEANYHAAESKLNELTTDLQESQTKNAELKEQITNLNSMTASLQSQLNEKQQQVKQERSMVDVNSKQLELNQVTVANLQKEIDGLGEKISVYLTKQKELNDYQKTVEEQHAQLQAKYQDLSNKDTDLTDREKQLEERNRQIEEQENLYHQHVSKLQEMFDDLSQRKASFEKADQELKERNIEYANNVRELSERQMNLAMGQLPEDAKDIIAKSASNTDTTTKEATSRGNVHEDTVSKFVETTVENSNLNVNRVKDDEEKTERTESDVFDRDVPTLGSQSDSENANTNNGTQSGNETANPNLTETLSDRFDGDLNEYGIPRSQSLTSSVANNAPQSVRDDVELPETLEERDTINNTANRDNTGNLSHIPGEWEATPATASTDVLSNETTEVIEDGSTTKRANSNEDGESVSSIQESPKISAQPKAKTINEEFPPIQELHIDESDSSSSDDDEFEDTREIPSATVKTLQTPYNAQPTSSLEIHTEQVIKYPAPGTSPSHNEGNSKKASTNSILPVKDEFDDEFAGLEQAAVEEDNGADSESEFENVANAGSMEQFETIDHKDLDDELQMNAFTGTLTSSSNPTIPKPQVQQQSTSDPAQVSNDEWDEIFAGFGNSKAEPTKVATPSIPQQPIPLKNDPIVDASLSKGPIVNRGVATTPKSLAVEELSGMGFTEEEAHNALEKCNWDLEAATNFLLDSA
Put plainly: FRET or BRET; acceptor photobleaching in live yeast; inner cytoplasmic (nucleus and vacuole free) areas; GFP/mCherry or mTurquoise2/mNeonGreen pairs. The following applies: partners not purified.

In assay [1] the target is T2, Pan1, full length, with a C-terminal fluorescent tag (S. cerevisiae, UniProt P32521 1-1480).
T2 construct: Pan1, S. cerevisiae; gene tagged at its endogenous locus; Linker RTLQVD between protein and C-terminal tag; also called Pan1-mCherry; C-terminus of Pan1; source: S. cerevisiae, expressed from its endogenous locus, in live cells; not shown: GFP or mCherry, C-terminal, kept
T2 sequence (looked up): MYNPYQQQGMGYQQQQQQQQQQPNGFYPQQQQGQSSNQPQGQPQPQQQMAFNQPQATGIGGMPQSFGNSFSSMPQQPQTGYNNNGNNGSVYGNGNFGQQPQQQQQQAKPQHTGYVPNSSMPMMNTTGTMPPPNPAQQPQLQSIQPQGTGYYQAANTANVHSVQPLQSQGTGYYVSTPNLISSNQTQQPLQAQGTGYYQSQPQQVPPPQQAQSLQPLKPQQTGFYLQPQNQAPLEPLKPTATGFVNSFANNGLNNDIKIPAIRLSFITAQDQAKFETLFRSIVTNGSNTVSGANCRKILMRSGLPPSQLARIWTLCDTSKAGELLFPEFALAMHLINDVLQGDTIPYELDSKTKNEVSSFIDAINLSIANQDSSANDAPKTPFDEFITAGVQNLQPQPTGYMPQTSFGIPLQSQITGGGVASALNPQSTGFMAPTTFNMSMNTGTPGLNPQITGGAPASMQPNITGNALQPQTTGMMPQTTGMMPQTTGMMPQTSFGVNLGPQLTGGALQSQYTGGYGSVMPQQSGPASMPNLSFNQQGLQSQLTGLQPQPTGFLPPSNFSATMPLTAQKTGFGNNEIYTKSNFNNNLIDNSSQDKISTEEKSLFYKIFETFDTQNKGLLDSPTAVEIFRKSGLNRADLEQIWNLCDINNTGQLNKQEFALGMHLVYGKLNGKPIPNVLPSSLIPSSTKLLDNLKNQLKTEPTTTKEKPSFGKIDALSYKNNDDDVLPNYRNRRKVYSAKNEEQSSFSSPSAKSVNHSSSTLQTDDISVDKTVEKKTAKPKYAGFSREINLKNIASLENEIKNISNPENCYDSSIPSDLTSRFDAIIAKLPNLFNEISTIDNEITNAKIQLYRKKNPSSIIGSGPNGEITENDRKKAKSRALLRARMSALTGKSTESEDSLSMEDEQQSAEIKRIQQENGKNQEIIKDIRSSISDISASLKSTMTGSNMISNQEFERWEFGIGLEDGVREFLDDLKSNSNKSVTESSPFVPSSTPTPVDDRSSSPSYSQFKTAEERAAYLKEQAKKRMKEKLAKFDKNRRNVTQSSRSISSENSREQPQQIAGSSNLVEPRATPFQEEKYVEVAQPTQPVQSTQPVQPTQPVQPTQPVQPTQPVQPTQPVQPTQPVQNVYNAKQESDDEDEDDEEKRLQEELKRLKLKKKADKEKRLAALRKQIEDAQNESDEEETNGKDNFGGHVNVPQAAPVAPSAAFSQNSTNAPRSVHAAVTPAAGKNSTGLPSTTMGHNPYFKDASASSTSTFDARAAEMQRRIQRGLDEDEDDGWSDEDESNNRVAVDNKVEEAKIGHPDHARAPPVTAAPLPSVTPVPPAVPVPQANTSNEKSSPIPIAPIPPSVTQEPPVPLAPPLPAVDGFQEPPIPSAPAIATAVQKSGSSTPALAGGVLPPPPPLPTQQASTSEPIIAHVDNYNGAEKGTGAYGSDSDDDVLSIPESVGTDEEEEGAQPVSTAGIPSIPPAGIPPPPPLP
Described as above. The settings on record: partners not purified.

B1: Syp1-GFP (natural protein, S. cerevisiae, UniProt P25623 1-870, looked up)
chain: MTEQRTKYADSILTTKSPYEATETIRIRLSQVKLLNKDFYLLFKELANLKRNYAQQLRKIIAENEDITKILNAQMIESNVLTPQEMSAFRFNSLGELRNVWDTVIEELKSDLKSSTEYYNTLDQQVVRELKESVENNTSWRESKDLHSKLSKNAASIEHYSKNNENSSHLEEARRQWDQQSPYLFELFETIDYNRLDTLKNCMLRFQTSFSDYLLNTTKECETVMTKFLAFEPQSEIDRFAKDASQYNFQLSSSSKEVVPNNASPASATGARPVSVSNGAANTEREKKSPQKDKRKSAFGNIGHRLASASSSLTHNDLMNNEFSDSTNNSSLKSKKSSHTLRSKVGSIFGRNKTKNKRQQQSSSNSHIQASITETPNNSSTRVSSTATSSIYQKQRRPTYSSSKSNNWTPGEASDTPPLPPHATPKNVDAPVTADTPPAQTFTPSEVPPSTPQQSSPPTAKEPDSSNLPKTVPISISQPPLQPQSKTKPLPVEPASPSISLPTATVDNQPSGQVDSRPLHIRAPALPPSRKQNFIHNRDSQLYDSLPNHGSGATPTSSSLSSIPQERPVSTLSSQITGELRELNPQATGSSTSLVGQSLFQHSSLDTSQFGLNASIAEVLNASFKDGMLQNSQLIGEIALNYLPNSVMNSPLPIGINLRINNGAKFEKVILNQAFIERVAPEEFKVNPSFIDSRTLGAIKYSIKEPIAPIVIHPVWRFESHQASVVLTVKMSPSLPDEISQIVIEDLVVFVNIDGANATSALSKPQGSFSKEKKRITWRFKEPVVLTRNGEGQRLIARFITDGLAHESAKGVITKFTISETDNVALPHSGAGSGITLTCQELDENNPFGGEWLDVNTKRTLTTGNYHGLA
notes: Syp1 (FCHo1/2 homolog), S. cerevisiae; gene tagged at its endogenous locus, no truncation told; Linker RTLQVD between protein and C-terminal tag; source: S. cerevisiae, expressed from its endogenous locus, in live cells; not shown: GFP, C-terminal, kept
On to B1, for which the FRET efficiency with Ede1-mCherry was found to be 2.5%.

B2: GFP-End3 (natural protein, S. cerevisiae, UniProt P39013 1-349, looked up)
chain: MPKLEQFEIKKYWQIFSGLKPIENKVNHDQVLPILYNSKLDSSVLNKIWFLADIDDDDNLDFEEFVICMRLIFDMVNKNISSVPDELPDWLIPGSKVNLIKERKKRKQIENADLPPKKEIKVDWYMSPDDLNQYEKIYNSCAKLTDGTITFNELSTKLSTKFFNISKTDLNKVWSLINPQNLPSIDRDPTFYFIHCLRQRNDLGAEIPASLPNSLAEVCNKKQLSYDLRSSQPPTKRKEEANEVDNLRDNGQNSSSDSSGSNVLSNEDSIKQKYASLTDDQVANMREQLEGLLNYKKSEKTQGGSKLSKRINIRSITDDLDNIEQQVEVLENYLNNKRHELQALQAEIN
notes: End3, S. cerevisiae; gene tagged at its endogenous locus, no truncation told; Linker GS(GGGGS)3ATENNS between N-terminal tag and protein; also called N-terminus of End3; source: S. cerevisiae, expressed from its endogenous locus, in live cells; not shown: GFP, N-terminal, kept
B2 showed an FRET efficiency in assay [1] of 4.5%.
